Experimental data published in the NTF2 design screens of Basanta et al. (2020).

Test: protease stability score; higher = more stable; yeast display proteolysis, trypsin and chymotrypsin;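 further: log10 excess protease needed over predicted unfolded state with 0 meaning unfolded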

Sequence | protease stability score
DDEEDKTLNQKAREALTDNDPDQMMNLFDKDANVDVGEKRVHGREQLRRYMQDLHRMVDHVQVDSVKVDGEKLEFKVTLQYNGRRLKVVFRINYHDGRAKNMHIEFTDEKTLKQFEK | 0.882
EEKQKTHVERFIEILREGDPQKAREMADKDAKFVYGDKSVHGMDEFRRQVERRNKQIHIDLKVREVDVHGNNVKIIIDAQEDHNGNPDSFKADMEVVYHNGRIKSASMDKQT | 0.074
DDEIRRQVHRYLRALQRNDEKLASDLLDPNAKFVYGDKTVHGREQHKKELRKMKDQWEFSVDVKKVKVQGNKIKVTADIRVDVNGRPMSHRYVVIFHAHNGKIKNAEFRMDEKYYRDVKR | 0.208
DEKKERQRAKELVKAMQHGDESKLKELLDENARLNVGDHKFHGMEEAHKTMRELWTRVDHLTVKSVDVTNGKIDIVVVFRHNGKNDRQVLEADVHNGRVRQQQIKSE | -0.14
DEEKHAKEMADRFRKILDNGNEHSVEKMFDENARMSVGDRTIHGREKIAKKLITDVRRVDHLQVKVLSYHAHGDKIDLKVQQTLVVNGEDETRRYQMHLTRVNGRFVAVDAREQ | -0.07
DEEDYKKMNEQLERIYKHGDPEEAEKMFDPNAKAEVGDKTIHGREEFRKYQQDRKDQADHVQVKDFKVQGERFVMEVVAHVNGREVRQVVNFTVHNGKIQDLKVREK | 0.013
DEKHLERQVDHFLDALHRGDEDEAVNLADPDVEFQVGDRTYHGKEQLKEWLKRLVDRVDHVDIKNITVSGDKVEVHADFSVDGRKETMTFTVRAHNGRIKHMTIDKG | 1.27
DEDRVRKVAKEVFEMLKKGDVDKLKELGKEDVVFQFGDERVKGVEEYRRIMKEMQDQGVQHEVKKAQVKDDTAKMVTVVTYGNKDVQLTAEATYEGGRLKEARVENTEEYKKIAKKS | -0.084
DEEKLAENFLETMQNIAREGDEEKMADLFDPNAEIQVGDKSYQGREDVLELNRREFERYDHVRIDVKRFSVKNGQLDAEMSVTFSVNGKTDSHDQRLRATLHNGRLKAKHRTNG | 0.476
DDTAVRIWEKLLSALRTGNEQEVEKNLDPNATVVIGDKRVSGREEVKRMVRRLLTTMRLNVKSVENRDQPGHADVQYTVQFNHNGRPREDRWVVIVRVKNGKIQTVVMKENP | 1.12
DETAVRVFRKIEDAYQKGDPDKITNLLDENVEMHVGDKRVHGRETMAEHLKKQLDEIRQKIKSVTLHDKGDTIRIDVLMVEEHNGQPRESRYHVHAKIHNGKMKEREQTSVQ | -0.095
DTEKLDRFAHEFVKVLREGDEDRMRKLADEDASMNIGDKEYRGREEVAKALREYRERYDHLQVDSIDVQGEHISVKAQVRIDGRRRRARFEVRMHNGRIKEVNFDPDLLKEQHT | 0.206
DETNVKNAEEWLRALQDNNSEQLRKLMDKDVRVEIGDDVIKGREDVVTNLIRKARELRFRIKVDKIEDDNGKVVVHAEATFTHNGKPDRVEVELVFSLDNGKIKEVVVKTDG | 1.69
DEKKQAEDFFDTWVEIVKSGDEEKAQQMADPNVRFQIGDKSWRGREDFKKFLKTQLKRADHIRFEVQRITVRPNHIEVQFRIVIDNNGQDSRDTLTFVIKVNGDRLRLVEMHEG | 1.43
DEEFNKVLEEALHAMHKGDPDKLNKNLDEDAKIKYGDKTVHGREDATKLLETIVKNARIQIDSFRVTSRGEKAVADVRLRYRINGKPIDVKMIIYAKNDNGRIKEVEYKIDPDELRKVEG | 1.28
DSDKLRKSAKKFLDLQRTGNEDELKKMIDPNAKAVVGDKEYHGSTEIAHALARMRREVDHITLDRFQFKGNRLKANMTYQHNGRRDRFVVTVTMHNGRVSHITFKST | 0.38
DEEDQAKELAERYLEAMENGDEEKNARLADKDVSLTVGDKHVHGREELKKWFRTFVHRVDHVEIQVHDVKVSNGNATIDAEIKYTFNGRDVKKQVLMHAHVKNGELTLKRMTFE | 1.02
DEERNERHAQDLMRALENNDEERLRQLLDKDAKLNVGDHEIHGSENIVKRLAEFLKRADHLRFERMTVRGDTVQISFEVEHDGERRKYEVHITVHNGHVQSITIQKQ | 2.49
DERKKDRMRELFEAWKTGDEHTAEKMLDKDAKIDVGDHRVQGREQHSTDVRRRKEEIRLRVDIDSIHIHNGRVSVEYKEENNHNGKPDTKNARVDFNMHNGRVQEQKQSNES | -0.35
EEEDVRKAKKFIQLLNSNDQENLKTLADPNATFRYGDKHIHGMDRVNQYLDRVDHTMKRDIEVTSMSAQGDHVRIHAIMRFKVNGNPDQIDIIIVVVVENGRIKEVQIRMPEEDKRRVDR | 0.416
DESKQRTFAEELLTAWETGNDDQARKLADPNVRFHIGDKEISGRENFAKWAKEVRDRVDHIRYEHIEIRGEKVRVNVQLEFDGKTERRVIVFNVHDGQVKSMDVKTT | 1.34
DDEEMTQLLRRILKALEKNDEDLYNQNFDEDVKINVGDKRYNGREDASKLMKTWNKQIDHFQVNDYTVSGEQLEMNITFQVDGRNVSFNVTATAKNGRVKEQTFDPSAMRKARS | -0.077
DERARNVLKRIMHALRENNEEEFKKNADPNVRIHVGDKQYHGREDAARKIMTTLKSMKERIDVKSVDVEGDQIELHADVQVEENGQPDTKEIRVHADIQGDKMRSMKVDDTK | -0.308
EEHQTKEWSKMLEVMTKGDKDKFRERADPNVRARVGDRTLHGWENVVRTELRRQHEISIDIHEMDVRSEGDKVVARYEFRQNQNGRPRRRDVTVTFRLHNGRLQEQHVQDTG | 0.148
DEKRYEELVKKAFDVIRNGNEEEMRKLGKPDVEYKYADKEFEGEEAMQTMVQVVKRIGAKVEIQHEEVHGDTAHAVFVYKKGNRTAQTTVKVVYEGDKLKKAEVKMTDEVRKVLHDG | -0.024
